In PMC5519978, “DNA binding drives the association of BRG1/hBRM bromodomains with nucleosomes”:

B1: DNAII.FA (dsDNA)
DNA 1: CGTAGACAGCTC
DNA 2: GAGCTGTCTACG
B2: DNAI.FA (dsDNA)
DNA 1: CCTCAATTGGTC
DNA 2: GACCAATTGAGG
B3: DNAIII (dsDNA)
DNA 1: CCTCAATTGGTCGTAG
DNA 2: CTACGACCAATTGAGG
B4: DNAII (dsDNA)
DNA 1: CGTAGACAGCT
DNA 2: AGCTGTCTACG
B5: DNAI (dsDNA)
DNA 1: CTCAATTGGT
DNA 2: ACCAATTGAG

Experiments:
[1] = biological target: T1, BRG1 AT-BRD (human, UniProt P51532 1434-1569); assay: fluorescence anisotropy; FA and NMR: 50 mM K phosphate pH 7.0, 50 mM KCl, 0.5 mM EDTA, 1 mM DTT (NMR +10% D2O), 20 C (BRG1 NMR 25 C); EMSA: 150 nM DNA/NCP, 10 mM K phosphate, 10 mM KCl, on ice, 0.2x TBE gel; conditions: protein: recombinant; tags: pDEST15 or pGEX6p1 (GST); label: 5' 6-FAM on strand 1; blunt
[2] = biological target: hBRM-A AT-BRD (human, UniProt P51531 1358-1508); assay: NMR titration; 1:1 stoichiometric; FA and NMR: 50 mM K phosphate pH 7.0, 50 mM KCl, 0.5 mM EDTA, 1 mM DTT (NMR +10% D2O), 20 C (BRG1 NMR 25 C); EMSA: 150 nM DNA/NCP, 10 mM K phosphate, 10 mM KCl, on ice, 0.2x TBE gel; conditions: protein: recombinant; tags: pDEST15 (GST) with PreScission site; blunt
[3] = biological target: T1, BRG1 AT-BRD; assay: NMR titration; 25 C; FA and NMR: 50 mM K phosphate pH 7.0, 50 mM KCl, 0.5 mM EDTA, 1 mM DTT (NMR +10% D2O), 20 C (BRG1 NMR 25 C); EMSA: 150 nM DNA/NCP, 10 mM K phosphate, 10 mM KCl, on ice, 0.2x TBE gel; conditions: protein: recombinant; tags: pDEST15 or pGEX6p1 (GST); blunt

T1 sequence (P51532 1434-1569): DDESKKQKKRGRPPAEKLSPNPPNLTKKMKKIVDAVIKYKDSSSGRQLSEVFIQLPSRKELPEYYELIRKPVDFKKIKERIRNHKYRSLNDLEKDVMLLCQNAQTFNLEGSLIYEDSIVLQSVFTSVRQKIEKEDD
hBRM-A AT-BRD, sequence (P51531 1358-1508): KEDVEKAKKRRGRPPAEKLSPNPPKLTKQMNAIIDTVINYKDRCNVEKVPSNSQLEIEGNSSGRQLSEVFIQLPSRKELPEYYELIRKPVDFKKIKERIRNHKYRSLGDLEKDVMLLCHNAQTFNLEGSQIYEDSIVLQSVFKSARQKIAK

Binder	Kd [1] [µM]	binding result [2]	binding result [3]
B1	40 ± 10	–	–
B2	16 ± 2	–	–
B3	–	binds	–
B4	–	–	binds
B5	–	binds	binds
